Measurements as given in publication PMC9927946.

Molecular target: 2P-IRS-1 (bisphosphorylated IRS-1 peptide), labeled with Cy5
Assay: MST; Monolith NT.115; 100 nM Cy5-labeled 2P-IRS-1, unlabeled protein serially diluted; 25 °C; n=3

Kd [µM] | Substance
> 1000 | NEDD8-SHP2 conjugation (SHP2 neddylated in the in vitro neddylation assay) (from UniProt Q06124 1-593; Q15843 1-76) (complex)
473 | SHP2 WT recombinant protein (Src homology region 2-containing protein tyrosine phosphatase 2) (from UniProt Q06124 1-593) (enzyme)
